Measurements as given in patent publication US20060045883A1, “Anti-cancer vaccines” (priority 2004, published 2006).

Tests used:
[1] = molecular target: HLA-A2.1 (HLA-A*0201) on the surface of T2 cells (human); test: peptide-binding assay, stabilisation of HLA-A2 on the surface of T2 cells, fluorescence intensity relative to PR1
[2] = molecular target: HLA-A2.1 heavy chain with I125-labeled beta2-microglobulin (heterotrimer dissociation assay) (human); test: dissociation of I125-labeled beta2-microglobulin from the heavy chain/peptide/beta2-microglobulin complex, HPLC gel filtration

Substance	FI CCNE1144-152/FI PR1 [1]	T1/2 [2] [days]
CCNE1144-152 (cyclin E1 derived nonameric peptide) (from UniProt P24864 144-152)	1.01	–
HTLV-1 Tax peptide (aa 11-19) (from UniProt P03409 11-19) (peptide; other documents disagree on this pair)	–	5.56
